From publication PMC9177848

target: LgBiT-mini-Gs fusion protein; assay: NanoBiT mini-Gαs recruitment assay; conditions: agonist fenoldopam; three independent experiments; parent: est. 7.2; read off a plot

Substance	other: pEC50
D1R-SmBiT fusion protein (WT) (from UniProt P21728) S202A	6.6
D1R-SmBiT fusion protein (WT) (from UniProt P21728) S198G	5.1
D1R-SmBiT fusion protein (WT) (from UniProt P21728) F288A	6

Continued, values first:

other: pEC50	Substance
5.4	D1R-SmBiT fusion protein (WT) (from UniProt P21728) N292L
5	D1R-SmBiT fusion protein (WT) (from UniProt P21728) L190A
6	D1R-SmBiT fusion protein (WT) (from UniProt P21728) K81V
6.5	D1R-SmBiT fusion protein (WT) (from UniProt P21728) W321F
6.1	D1R-SmBiT fusion protein (WT) (from UniProt P21728) F289A

target: smBiT-β-arrestin (an N-terminal smBiT) (UniProt P32121); assay: NanoBiT β-arrestin recruitment assay; conditions: highest fenoldopam concentration shown, log[Fenoldopam] M about -4.3; parent: est. 2.7; read off a plot

response	Substance
1.2 fold change	D1R-LgBit (WT) (from UniProt P21728) K81V
